Target: FGF ligands
Test: cell-based or functional assay

B1: FGFR1-CCD fusion protein (protein)
chain: RPSPTLPEQAQPWGAPVEVESFLVHPGDLLQLRCRLRDDVQSINWLRDGVQLAESNRTRITGEEVEVQDSVPADSGLYACVTSSPSGSDTTYFSVNVSDALPSSEDDDDDDDSSSEEKETDNTKPNPVAPYWTSPEKMEKKLHAVPAAKTVKFKCPSSGTPNPTLRWLKNGKEFKPDHRIGGYKVRYATGSIIMDSVVPSDKGNYTCIVENEYGSINHTYQLDVVERSPHRPILQAGLPANKTVALGSNVEFMCKVYSDPQPHIQWLKHIEVNGSKIGPDNLPYVQILKTAGVNTTDKEMEVLHLRNVSFEDAGEYTCLAGNSIGLSHHSAWLTVLEALEERPAVMLKEFMGYQGPPGPPGPPGIPGNHGNNGNNGATGHEGAKGEKGDKGDLGPRGERGQHGPKGEKGYPGIPGYCGPPGPPGPPGIPGNHGNNGNNGATGHEGAKGEKGDKGDLGPRGERGQHGPKGEKGYPGIPDYKDDDDKLQISSTVAAAHHHHHHV
An MTT assay of HUVEC cells (cell growth / metabolic activity) of less than 50% was found for B1 in this work.

Reference: US20220324943A1
